This data set deals with the molecule itself. The experiment in a line: SDS-PAGE and western blot; purified MOMP in SDS loading buffer, all samples heated and reduced; NuPAGE gel; blot with anti-CtE EB mouse sera; SDS-resistant dimeric and oligomeric forms. On the technique in general: Immunoblotting shows a protein as a band on a membrane.

B1: recombinant C. trachomatis Serovar E major outer membrane protein, expressed in the E. coli outer membrane with a PelB leader and purified (natural protein)
chain: LPVGNPAEPSLMIDGILWEGFGGDPCDPCTTWCDAISMRMGYYGDFVFDRVLKTDVNKEFQMGDKPTSTTGNATAPTTLTARENPAYGRHMQDAEMFTNAACMALNIWDRFDVFCTLGASSGYLKGNSASFNLVGLFGDNENQSTVKTNSVPNMSLDQSVVELYTDTAFSWSVGARAALWECGCATLGASFQYAQSKPKVEELNVLCNAAEFTINKPKGYVGQEFPLALIAGTDAATGTKDASIDYHEWQASLALSYRLNMFTPYIGVKWSRASFDADTIRIAQPKSATAIFDTTTLNPTIAGAGDVKASAEGQLGDTMQIVSLQLNKMKSRKSCGIAVGTTIVDADKYAVTVETRLIDERAAHVNAQFRF
notes: Major outer membrane protein (MOMP), C. trachomatis strain E/12-94 Serovar E, ORF O175_03780; also called rCtE-MOMP; rMOMP
For the protein B1, the binding result is “binds”.
